The values that follow come from CN116574180A.

This assay concerns the target 生物素标记的抗原多肽 (biotin-labelled human collagen IV α1 chain peptide, synthesised by GenScript) (human). Kind of assay: BLI (Fortebio Octet); biotinylated peptide on SA biosensor, antibody at 100-1.56 nM. (In general: Biolayer interferometry detects binding as a change in optical thickness at a sensor tip.)

B1: 8A12D2-2 (antibody, V domains shown)
VH: EVQLQQSGAELVKPGASVKLSCTASGFNIKDHYMHWVKQRTKQGLEWIGRIDPEDGKTNSAPEFQDKATITSDISSNTVYLQLYSLTSEDTAVYYCAYSNFGFAYWGRGTLVTVSA
VL: DIVMTQAAFSNPVTLGTSTSISCRSSRSLLHSNGITYLYWYLQKPGQSPQLLIYQMSSLASGVPDRFSANGSGTDFTLRISRVEAEDVGVYYCAQKLGLPYTFGGGTKLEIK
What is called Kd is the concentration at which binding is half-saturated. B1 came in with a Kd of 0.376 nM. This counts as sub-nanomolar.
